# Results: the supplement of paper PMC9170038
# Test system: MS2 coat protein
# Assay: apparent KD of MS2 coat protein; designed switch direction (-1 OFF switch, 1 ON switch): -1; higher = weaker reporter binding
# Outline: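 SNAP-549-labelled MS2 coat protein was titrated, doubling from 0.7 or 1.5 nM to 3 µM, over designed RNA switches transcribed on Illumina chips by stalled E. coli RNA polymerase. Runs were done without input, with 200 uM small-molecule ligand, or with an oligonucleotide input. Apparent KD is the per-design median over clusters of curve-fitted normalised fluorescence.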
# [1] = Eterna round: R95, input ligand: microRNA oligo, concentration not stated
# [2] = input ligand: microRNA oligo, concentration not stated
sequence,measurement,setting,value
AUUGUAGUUGUGAGGAUAUCGUUGAUUUUUUGAAACGAGAAGGCACAUGAGGAUCACCCAUGUAAGUUGUAGGU [JR_BMOE4_Sub055] (puzzle: Brourd's mod of Exclusion 4),apparent KD of MS2 coat protein,[1],77.6 nM
"AUUGUAUGAUACCUCUAAUACAUGAGGAUCACCCAUGUUAUCGAGGAUAUGCAGAAUAGAUUAGAGCAGAAGGCGAAGUAAUAU [JR_ExcNG3_Sub025] (Eterna round: R96, puzzle: Exclusion NG 3)",apparent KD of MS2 coat protein,input ligand: FMN 200 uM,15 nM
same,apparent KD of MS2 coat protein,[2],9.08 nM
same,apparent KD of MS2 coat protein,input ligand: none,13.6 nM
"AUUGUUUAUGUAGGAUAUGCCUGGCGUGCCUUCGCAGAAGGACAUGAGGAUCACCCAUGUAUUGCGGUCUGCGUUCAGAUCGCU [salish99_ExNG1_r4_025] (Eterna round: R96, puzzle: Exclusion NG 1)",apparent KD of MS2 coat protein,input ligand: FMN 200 uM,75 nM
same,apparent KD of MS2 coat protein,[2],30.6 nM
same,apparent KD of MS2 coat protein,input ligand: none,55.4 nM
"AUUGUUUAUGUAGGAUAUGCCUGGCGUGCCUUUGCAGAAGGACAUGAGGAUCACCCAUGUAACAUGAGGCUCACCCAUGUCGCA [salish99_ExNG1_r04_113] (Eterna round: R96, puzzle: Exclusion NG 1)",apparent KD of MS2 coat protein,input ligand: FMN 200 uM,481 nM
same,apparent KD of MS2 coat protein,[2],255 nM
same,apparent KD of MS2 coat protein,input ligand: none,429 nM
"AUUUAAUUUAGCGAGAUCACAUGAGGAUCACCCAUGUAUAUAUAGGAUAUCAGCUCGUGUAGAGCUGAGAAGGAUAUAUACCGC [ExNG3/7-A3] (Eterna round: R96, puzzle: Exclusion NG 3)",apparent KD of MS2 coat protein,input ligand: FMN 200 uM,108 nM
same,apparent KD of MS2 coat protein,[2],72.5 nM
same,apparent KD of MS2 coat protein,input ligand: none,88.1 nM
"AUUUAGUCAGGAUAUACAUGAGGAUCACCCAUGUAAACUUUUAGUUUAAUUUGAAUGUGUAGAAGGGACAUUUA [Ex3 #46] (Eterna round: R97, puzzle: Exclusion 3)",apparent KD of MS2 coat protein,input ligand: FMN 200 uM,26 nM
same,apparent KD of MS2 coat protein,input ligand: none,28 nM
"AUUUAGUGAGGAUAUGUGGCUUCGAUCGUGAGAUCGAGGCUACAGAAGGCACAUGAGGAUCACCCAUGUUCCUG [salish99_ex4_r4_113] (Eterna round: R97, puzzle: Exclusion 4)",apparent KD of MS2 coat protein,input ligand: FMN 200 uM,75.7 nM
same,apparent KD of MS2 coat protein,input ligand: none,17.5 nM
"AUUUUAUUCUGAGGAUAUUGAUUAAUCCUCUCACAUGAGGAUCACCCAUGUUUCCGUGUUUACCGCAAGAAGGCAGUUUUGUAU [JR_ExcNG2_Sub025] (Eterna round: R96, puzzle: Exclusion NG 2)",apparent KD of MS2 coat protein,input ligand: FMN 200 uM,41.4 nM
same,apparent KD of MS2 coat protein,[2],35.2 nM
same,apparent KD of MS2 coat protein,input ligand: none,41 nM
"AUUUUGUCAGGAUAUGAGUAGUAGGACGAAAGUGUUAUUAUUUAGAAGGGACAUGAGGAUCACCCAUGUUCCUC [Bring Us a Shrubbery-03] (Eterna round: R96, puzzle: Exclusion 4)",apparent KD of MS2 coat protein,input ligand: FMN 200 uM,13.9 nM
same,apparent KD of MS2 coat protein,[2],10.7 nM
same,apparent KD of MS2 coat protein,input ligand: none,13.7 nM
AUUUUGUCAGGAUAUGAGUAGUAGGACGAAAGUGUUAUUAUUUAGAAGGGACAUGAGGAUCACCCAUGUUCCUC [Bring Us a Shrubbery-03] (puzzle: Exclusion 4),apparent KD of MS2 coat protein,[1],12.1 nM
AUUUUGUCAGGAUAUGAUUAGUAGGACGAGAGUGCUACUACUUAGAAGGGACAUGAGGAUCACCCAUGUAUUCC [Bring Us a Shrubbery-08] (puzzle: Exclusion 4),apparent KD of MS2 coat protein,[1],15 nM
CAAAAGCUAGGAUAUACAUGAGGAUCACCCAUGUAUAGGUGGGCAGUUCUUAUCAAACGUAGAAGGAGCAUAAA [Uslaisan] (puzzle: Exclusion 3),apparent KD of MS2 coat protein,"Eterna round: R95, input ligand: FMN 200 uM",39.2 nM
same,apparent KD of MS2 coat protein,[1],17.5 nM
same,apparent KD of MS2 coat protein,"Eterna round: R95, input ligand: none",16.6 nM
"CAACAACGAGGAUAUACAUGAGGAUCACCCAUGUAAGAAAAGACAUAAACCGCCUGGUGUAGAAGGCGUAAAAC [Xeonesar] (Eterna round: R97, puzzle: Exclusion 3)",apparent KD of MS2 coat protein,input ligand: FMN 200 uM,25.2 nM
same,apparent KD of MS2 coat protein,input ligand: none,38.2 nM
CAACCACAUGAGGAUCACCCAUGUGAGGAUAUGAUACUAUGUACUUCGGUACAUAGUAUCAGAAGGCACAGGUG [Ex1-3: 60] (puzzle: Exclusion 1),apparent KD of MS2 coat protein,[1],83.2 nM
"CAACCUCACAACCGUUAAAACAUGAGGAUCACCCAUGUGCCAUAACGGCGCAUGAUCGAGCUAGGCCCGUCCAUGCA [Razaxe] (Eterna round: R96, puzzle: Sensor v2, turn-off variant)",apparent KD of MS2 coat protein,input ligand: FMN 200 uM,23.2 nM
same,apparent KD of MS2 coat protein,[2],18.8 nM
same,apparent KD of MS2 coat protein,input ligand: none,26.1 nM
CAACUGUGAGGAUAUGGUGAGUAGUGCCUGAGCGCUGCUCACCAGAAGGCACAUGAGGAUCACCCAUGUAUAAC [Mat - Exclusion 4 - Mod of JL - D4] (puzzle: Exclusion 4),apparent KD of MS2 coat protein,[1],35.6 nM
"CAAGAUUACUGAGGAUAUCCUAGUUUAUCUCAGGGAGAAGGCGGACUCAACAUGAGGAUCACCCAUGUAAGACGGGUACUAGAG [Ex NG1 #15] (Eterna round: R96, puzzle: Exclusion NG 1)",apparent KD of MS2 coat protein,input ligand: FMN 200 uM,84.8 nM
same,apparent KD of MS2 coat protein,[2],68.4 nM
same,apparent KD of MS2 coat protein,input ligand: none,43.2 nM
"CAAGCUUUUCCAUUUCUAUACAUGAGGAUCACCCAUGUCCCGAGUUGGGUGAGCACUCUGGUCGUCGUUUCUACCAA [Envele] (Eterna round: R96, puzzle: Sensor v2, turn-off variant)",apparent KD of MS2 coat protein,input ligand: FMN 200 uM,432 nM
same,apparent KD of MS2 coat protein,[2],181 nM
same,apparent KD of MS2 coat protein,input ligand: none,278 nM
"CAAUACAAGCGAAGAUCCUACAUGAGGAUCACCCAUGUGCUCGUCUUAAAAGGUACUGUGACGAAAGUCACGGUACC [Eli 87 + Mat D67 4] (Eterna round: R97, puzzle: Sensor, turn-off variant 1)",apparent KD of MS2 coat protein,input ligand: FMN 200 uM,282 nM
same,apparent KD of MS2 coat protein,input ligand: none,296 nM
"CAAUAUUAUCGAGGAUAUCCUAUUGUAUUUCAGGGAGAAGGCGGACUCAACAUGAGGAUCACCCAUGUAAGACGGGUACUAGAU [Ex NG1 #19] (Eterna round: R96, puzzle: Exclusion NG 1)",apparent KD of MS2 coat protein,input ligand: FMN 200 uM,92.2 nM
same,apparent KD of MS2 coat protein,[2],69.8 nM
same,apparent KD of MS2 coat protein,input ligand: none,89.7 nM
"CACCAGAGAGGAUAUGCACUCAUGGCACCGAAAGGGAGGCGACAUGAGGAUCACCCAUGUAGAAGGCUCAGCAG [Eternabot (Original) Solution 16] (Eterna round: R97, puzzle: Exclusion 2)",apparent KD of MS2 coat protein,input ligand: FMN 200 uM,153 nM
same,apparent KD of MS2 coat protein,input ligand: none,70.6 nM
"CACCGUUACAUAGGAUAUGUUACAUGAGGAUCACCCAUGUAAUAAAUGAGAAUUUCGAAUGUAAUACAGAAGGAUGGAAUCGGC [Ostracism 71 - Jieux - Exclusion NG 2] (Eterna round: R96, puzzle: Exclusion NG 2)",apparent KD of MS2 coat protein,input ligand: FMN 200 uM,28.7 nM
same,apparent KD of MS2 coat protein,[2],16.6 nM
same,apparent KD of MS2 coat protein,input ligand: none,17.7 nM
"CACGUACAGCAAGGAUAUCCAAAUGUUGAGCAUGGCCUAUCCAUACAUGAGGAUCACCCAUGUUCGGAGAAGGUGCAUGUAUCU [Enteinte] (Eterna round: R96, puzzle: Exclusion NG 2)",apparent KD of MS2 coat protein,input ligand: FMN 200 uM,11.2 nM
same,apparent KD of MS2 coat protein,[2],9.96 nM
same,apparent KD of MS2 coat protein,input ligand: none,12.8 nM
"CACUGCAGGUUAGGAUAUGGACAACAACAUGAGGAUCACCCAUGUAUGUAUGAACAUGUUGAUCACCAGAAGGAACACAUCAGU [Exclusion NG 2 S2] (Eterna round: R96, puzzle: Exclusion NG 2)",apparent KD of MS2 coat protein,input ligand: FMN 200 uM,12.2 nM
same,apparent KD of MS2 coat protein,[2],9.35 nM
same,apparent KD of MS2 coat protein,input ligand: none,11.8 nM
"CAGAAGUGAGGAUAUAUAUGUAAGUUUGAUCCAACAAGUAUACAUGAGGAUCACCCAUGUAGAAGGUGCUUCCC [Eternabot (L2) Solution 45] (Eterna round: R97, puzzle: Exclusion 2)",apparent KD of MS2 coat protein,input ligand: FMN 200 uM,57.2 nM
same,apparent KD of MS2 coat protein,input ligand: none,44.6 nM
"CAGCUGAAAGUGAGGAUAUCGACUGCCUCGGCAGUCGAGAAGGCACAUGAGGAUCACCCAUGUCUCAACAGCUG [BmEx4/1-A5] (Eterna round: R97, puzzle: Brourd's mod of Exclusion 4)",apparent KD of MS2 coat protein,input ligand: FMN 200 uM,81.4 nM
same,apparent KD of MS2 coat protein,input ligand: none,23 nM
"CAGCUGUCAGGAUAUCGUGCAUACAACGAAAGUUCUAUGUGCGAGAAGGGACAUGAGGAUCACCCAUGUUUACG [Omei Ex4 A24] (Eterna round: R97, puzzle: Exclusion 4)",apparent KD of MS2 coat protein,input ligand: FMN 200 uM,48 nM
same,apparent KD of MS2 coat protein,input ligand: none,28.6 nM
CAGGAUAGAGGAUAUACAUAGAUACAGAUUCAUAUAAUCCUACAUGAGGAUCACCCAUGUAGAAGGCUAUCCUG [Fiskers Ex 2 - 25] (puzzle: Exclusion 2),apparent KD of MS2 coat protein,[1],14.5 nM
"CAGGUGUGAGGAUAUGUGAUUAUGAUAGACCGAGUCUACCCACAGAAGGCACAUGAGGAUCACCCAUGUGAGUA [Eternabot (L1) Solution 75] (Eterna round: R97, puzzle: Exclusion 4)",apparent KD of MS2 coat protein,input ligand: FMN 200 uM,122 nM
same,apparent KD of MS2 coat protein,input ligand: none,46.6 nM
CAGGUGUUAGGAUAUCGGAGGUUGAGGCAGACGGGAAUAUUCGAGAAGGAACAUGAGGAUCACCCAUGUAGUAG [JR_Exclu4_Sub037] (puzzle: Exclusion 4),apparent KD of MS2 coat protein,[1],21.5 nM
"CAGUACAGAGGAUAUACAUGAGGAUCACCCAUGUGUUCCAGCUAGGAGACUAGCAAGUGUAGAAGGCUGUACUG [Mat - Exclusion 3 - JL Mod - D8] (Eterna round: R97, puzzle: Exclusion 3)",apparent KD of MS2 coat protein,input ligand: FMN 200 uM,592 nM
same,apparent KD of MS2 coat protein,input ligand: none,405 nM
"CAGUACCUAGGAUAUACACGGCCACGUGAUACCAAGGAGCAACUUGAGGAUCACCCAAGUAGAAGGAGGUACUG [jl-ex2.4.42 ViennaUCT mod] (Eterna round: R97, puzzle: Exclusion 2)",apparent KD of MS2 coat protein,input ligand: FMN 200 uM,3200 nM
same,apparent KD of MS2 coat protein,input ligand: none,198 nM
"CAGUACGGAGGAUAUACAUGAGGAUCACCCAUGUGAGAGAUACUAGUGAGGUCGAUUAGUAGAAGGCUGUACUG [Mat X3R4 m6] (Eterna round: R97, puzzle: Exclusion 3)",apparent KD of MS2 coat protein,input ligand: FMN 200 uM,501 nM
same,apparent KD of MS2 coat protein,input ligand: none,39.7 nM
"CAGUACUGAGGAUAUACAUGAGGAUCACCCAUGUGAGAGUUACUAGUGAGGUCGAUUAGUAGAAGGCAGUACUG [Mat X3R4 m29] (Eterna round: R97, puzzle: Exclusion 3)",apparent KD of MS2 coat protein,input ligand: FMN 200 uM,215 nM
same,apparent KD of MS2 coat protein,input ligand: none,39.6 nM
